Data set [1] concerns the molecule itself. Description: yeast two-hybrid, FIG. 5C. As for the experimental part:
(§1) Protein interaction assays in yeast were performed using the Matchmaker Gold Yeast Two-Hybrid System (Clontech) as described before (Park et al., 2014b). The coding sequences for bait proteins were cloned into the pGBKT7 vector, and the resulting vectors were transformed into the Y2HGold yeast strain. The coding sequences for prey proteins were cloned into the pGADT7 AD vector, and the resulting vectors were transformed into the Y187 yeast strain. After mating the two yeast strains expressing bait and prey proteins, diploid yeast cells were selected and grown on dropout medium without leucine and tryptophan. To assay protein-protein interactions, clones were grown on triple-dropout medium without leucine, tryptophan, and histidine for 3 d at 30° C. To block auto-activation, 3 mM 3-amino-1,2,4-triazole (3-AT) were added or adenine was removed from the triple-dropout medium. All primer sequences used for cloning can be found in Table 2.

Data set [2] deals with the molecule itself. Description: yeast two-hybrid (Matchmaker Gold; growth on -L-T-H medium). Here is the method: as §1

B1: J2 (Jointless-2, Solyc12g038510) SEP4-homolog MADS-box protein (other)
chain: MGRGRVELKRIENKINRQVTFAKRRNGLLKKAYELSILCDAEVALIIFSSRGKLYEFSSASSMMTTLEKYQQCSYASLDPMLPVSDTQMNYNEYVRLKARVELLQRSQRHILGEDLGTLNSKELEQLEHQLDASLKKVRSKKTQSMLDQLADLQEKEQMLEEANKQLKNKLEESAARIPLGLSWGNNGGQTMEYNRLPPQTTAQPFFQPLRLNSSSPQFGYNPNMGANDHEVNAATTAHNINGFIPGWML
Turning to B1, the binding result in data set [1] was “binds”.

B2: EJ2 (Enhancer-of-Jointless-2, Solyc03g114840) SEP4-homolog MADS-box protein (other)
chain: MGRGRVELKRIENKINRQVTFAKRRNGLLKKAYELSVLCDAEVALIIFSNRGKLYEFCSTSSMVKTIEKYQRCSYATLEANQSVTDTQNNYHEYLRLKARVELLQRSQRNFLGEDLGTLSSKDLEQLENQLESSLKQIRSRKTQFMLDQLADLQQKEQMLAESNRLLRRKLEESVAGFPLRLCWEDGGDHQLMHQQNRLPNTEGFFQPLGLHSSSPHFGYNPVNTDEVNAAATAHNMNGFIHGWML
As for B2, the binding result in data set [2] is given as “no binding”.
